{"source": "patent US20220227832", "proteins": {"B1": {"name": "endogenous matriptase on OVCAR3, MDA-MB-231 and NCI-H292 cells (protein)", "chain": "MGSDRARKGGGGPKDFGAGLKYNSRHEKVNGLEEGVEFLPVNNVKKVEKHGPGRWVVLAAVLIGLLLVLLGIGFLVWHLQYRDVRVQKVFNGYMRITNENFVDAYENSNSTEFVSLASKVKDALKLLYSGVPFLGPYHKESAVTAFSEGSVIAYYWSEFSIPQHLVEEAERVMAEERVVMLPPRARSLKSFVVTSVVAFPTDSKTVQRTQDNSCSFGLHARGVELMRFTTPGFPDSPYPAHARCQWALRGDADSVLSLTFRSFDLASCDERGSDLVTVYNTLSPMEPHALVQLCGTYPPSYNLTFHSSQNVLLITLITNTERRHPGFEATFFQLPRMSSCGGRLRKAQGTFNSPYYPGHYPPNIDCTWNIEVPNNQHVKVRFKFFYLLEPGVPAGTCPKDYVEINGEKYCGERSQFVVTSNSNKITVRFHSDQSYTDTGFLAEYLSYDSSDPCPGQFTCRTGRCIRKELRCDGWADCTDHSDELNCSCDAGHQFTCKNKFCKPLFWVCDSVNDCGDNSDEQGCSCPAQTFRCSNGKCLSKSQQCNGKDDCGDGSDEASCPKVNVVTCTKHTYRCLNGLCLSKGNPECDGKEDCSDGSDEKDCDCGLRSFTRQARVVGGTDADEGEWPWQVSLHALGQGHICGASLISPNWLVSAAHCYIDDRGFRYSDPTQWTAFLGLHDQSQRSAPGVQERRLKRIISHPFFNDFTFDYDIALLELEKPAEYSSMVRPICLPDASHVFPAGKAIWVTGWGHTQYGGTGALILQKGEIRVINQTTCENLLPQQITPRMMCVGFLSGGVDSCQGDSGGPLSSVEADGRIFQAGVVSWGDGCAQRNKPGVYTRLPLFRDWIKENTGV"}}, "molecular_target": "Muc16 CAR 53B6 with a V5 tag attached to its N-terminus via matriptase cleavable linker TPS6 45aa", "sequence (chain, as listed by the source)": "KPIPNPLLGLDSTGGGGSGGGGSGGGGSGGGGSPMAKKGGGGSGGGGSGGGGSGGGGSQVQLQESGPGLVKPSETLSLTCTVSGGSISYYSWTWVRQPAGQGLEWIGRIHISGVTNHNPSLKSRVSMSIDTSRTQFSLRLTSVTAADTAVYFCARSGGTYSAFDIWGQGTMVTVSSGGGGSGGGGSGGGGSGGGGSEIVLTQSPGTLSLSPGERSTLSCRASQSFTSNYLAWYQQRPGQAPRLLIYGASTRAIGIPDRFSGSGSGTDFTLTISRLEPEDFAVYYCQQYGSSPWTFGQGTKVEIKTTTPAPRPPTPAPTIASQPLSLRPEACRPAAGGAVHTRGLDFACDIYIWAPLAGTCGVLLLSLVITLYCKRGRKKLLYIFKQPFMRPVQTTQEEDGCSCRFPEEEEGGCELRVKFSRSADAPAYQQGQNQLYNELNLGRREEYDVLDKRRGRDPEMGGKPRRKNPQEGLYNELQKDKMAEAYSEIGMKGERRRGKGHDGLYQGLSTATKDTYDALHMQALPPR"}
{"protein": "B1", "values": [{"measurement": "removal of V5 tag (linker cleavage, flow cytometry)", "result": "the endogenous matriptase showed limited activity"}]}
